Earlier results on 1 substance are cited in paper PMC3089658.

The data set has as its target CD25 (Homo sapiens) (UniProt P01589).
UniProt P01589, sequence (P01589 22-240): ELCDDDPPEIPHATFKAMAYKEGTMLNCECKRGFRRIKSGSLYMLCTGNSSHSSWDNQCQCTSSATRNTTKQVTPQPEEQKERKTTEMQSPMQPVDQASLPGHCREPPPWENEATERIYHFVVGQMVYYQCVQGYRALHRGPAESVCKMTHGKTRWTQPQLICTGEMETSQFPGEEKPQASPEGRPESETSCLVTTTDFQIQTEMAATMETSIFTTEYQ

One may read the Kd as the equilibrium constant for the complex coming apart. In the case of IL-2 (from UniProt P60568), the Kd is 10 nM.
